From the Immune Epitope Database (IEDB) come the findings set out here.

One assay concerns the target HLA-A*03:01. In words: IEDB peptide-MHC binding, cellular MHC/competitive/fluorescence; ≥ and ≤ were set here for values at or beyond the usual limits of such assays. Particulars: source organism: Hepatitis B virus.
The target of the next assay is HLA-A*11:01. Described as above. The note with it: source organism: Hepatitis B virus.
The next assay deals with HLA-A*31:01. Described as above. The note with it: source organism: Hepatitis B virus.
The next assay addresses HLA-A*68:01. Described as above. The note with it: source organism: Hepatitis B virus.
Assay [1] addresses HLA-A*02:01. The assay can be described thus: IEDB peptide-MHC binding, purified MHC/competitive/radioactivity; ≥ and ≤ were set here for values at or beyond the usual limits of such assays. Particulars: source organism: Hepatitis B virus.
Assay [2] concerns the target HLA-A*02:06. The assay is described as above. Particulars: source organism: Hepatitis B virus.
Assay [3] has as its target HLA-A*68:02. In words: IEDB peptide-MHC binding, cellular MHC/competitive/fluorescence; ≥ and ≤ were set here for values at or beyond the usual limits of such assays.
Assay [4] deals with HLA-A*02:03. In words: IEDB peptide-MHC binding, purified MHC/competitive/radioactivity; ≥ and ≤ were set here for values at or beyond the usual limits of such assays. The note with it: source organism: Hepatitis B virus.
The target in assay [5] is HLA-A*02:02. The description is as above. The note with it: source organism: Hepatitis B virus.
In assay [6] the target is HLA-A*68:02. Described as above. The note with it: source organism: Hepatitis B virus.
For assay [7], the target named is HLA-A*02:03. The assay can be described thus: IEDB peptide-MHC binding, cellular MHC/competitive/fluorescence; ≥ and ≤ were set here for values at or beyond the usual limits of such assays.
Assay [8] concerns the target HLA-A*02:01. Described as above.
Assay [9] addresses HLA-A*02:02. Described as above.
Assay [10] addresses HLA-A*02:06. Described as above.
The mark [11] stands for this setting: source organism: Hepatitis B virus.
The mark [12] stands for this setting: source organism: Vaccinia virus WR.
The mark [13] stands for this setting: source organism: Influenza A virus.
[14] abbreviates: source organism: Mammarenavirus machupoense.
The mark [15] stands for this setting: source organism: Mammarenavirus guanaritoense.

On to ALMPLYACI, for which the IC50 (in general, the point on the concentration scale where inhibition reaches its midpoint) was no less than 70 µM with HLA-A*03:01, no less than 70 µM with HLA-A*11:01, 50.3 µM in the assay with HLA-A*31:01 and no less than 70 µM in the assay with HLA-A*68:01.

Take FLLAQFTSA: the IC50 with HLA-A*02:01 [1] is 0.098 µM; in the assay with HLA-A*02:06 [2], 0.0087 µM; with HLA-A*68:02 [3] (setting [11]) it was 9.89 µM; with HLA-A*31:01, 25.7 µM; with HLA-A*68:01 it was no less than 70 µM.

On to FLLAQFTSAI, for which the IC50 with HLA-A*02:03 [4] was 0.00031 µM; with HLA-A*02:02 [5], 3.6 nM; with HLA-A*02:06 [2], 0.045 µM; with HLA-A*03:01, 11.2 µM; with HLA-A*11:01 it was no less than 70 µM; with HLA-A*31:01, 16.1 µM. For the same sequence, the IC50 with HLA-A*68:01 was 23.6 µM.

In the case of FLLTRILTI, the half-maximal inhibitory concentration (IC50) was 22.3 µM with HLA-A*68:02 [3] (setting [11]), no less than 70 µM in the assay with HLA-A*03:01, no less than 70 µM with HLA-A*31:01 and no less than 70 µM with HLA-A*68:01.

As for FLPSDFFPSV, the IC50 with HLA-A*68:02 [6] was 0.028 µM; with HLA-A*03:01, no less than 70 µM; with HLA-A*31:01 it was 20.1 µM; in the assay with HLA-A*68:01 it was no less than 70 µM.

Take GLLGWSPQA: the half-inhibitory concentration (IC50) was 51 nM with HLA-A*02:02 [5]; 1.05 µM in the assay with HLA-A*02:06 [2]; no less than 70 µM in the assay with HLA-A*68:02 [3] (setting [11]); 14 µM with HLA-A*03:01; no less than 70 µM with HLA-A*11:01; 9.14 µM with HLA-A*31:01. The IC50 with HLA-A*68:01 is no less than 70 µM.

For the sequence GMLPVCPLI, the IC50 with HLA-A*03:01, in the assay with HLA-A*11:01 and with HLA-A*68:01 was no less than 70 µM in each case.

For ILSPFLPLL, the IC50 with HLA-A*02:03 [4] was 0.00084 µM; with HLA-A*02:01 [1] it was 0.0014 µM; with HLA-A*02:02 [5], 0.076 nM; with HLA-A*02:06 [2] it was 0.00093 µM; with HLA-A*68:01, no less than 70 µM.

For the sequence SILSPFLPL, the 50% inhibitory concentration (IC50) with HLA-A*68:01 was no less than 70 µM.

For WLSLLVPFV, the IC50 in the assay with HLA-A*03:01 was 40.3 µM; with HLA-A*31:01, 11.7 µM; with HLA-A*68:01, no less than 70 µM.

For YIKDLKHAT, the IC50 with HLA-A*68:02 [3] (setting [12]) was no less than 70 µM; with HLA-A*02:03 [7] (setting [12]) it was no less than 70 µM; with HLA-A*02:01 [8] (setting [12]), 8.08 µM; with HLA-A*02:02 [9] (setting [12]) it was 18.5 µM; in the assay with HLA-A*02:06 [10] (setting [12]) it was 39.4 µM.

Consider YLEKANKI, for which the IC50 was no less than 70 µM in the assay with HLA-A*68:02 [3] (setting [13]); 38.3 µM with HLA-A*02:03 [7] (setting [13]); 12.3 µM with HLA-A*02:01 [8] (setting [13]); 8.22 µM with HLA-A*02:02 [9] (setting [13]); no less than 70 µM in the assay with HLA-A*02:06 [10] (setting [13]).

As to YMDDVVLGA, the IC50 was 1.29 µM with HLA-A*02:03 [4]; 3.71 µM with HLA-A*02:06 [2]; 50.1 µM with HLA-A*68:02 [3] (setting [11]); 69.4 µM with HLA-A*03:01; no less than 70 µM with HLA-A*11:01; no less than 70 µM with HLA-A*31:01. Also, in the assay with HLA-A*68:01, the IC50 is no less than 70 µM.

Take YNCKCCWFA: the IC50 is 52.9 µM with HLA-A*68:02 [3] (setting [14]); 31.9 µM with HLA-A*02:03 [7] (setting [14]); 42.9 µM with HLA-A*02:01 [8] (setting [14]); 16.1 µM with HLA-A*02:02 [9] (setting [14]); no less than 70 µM with HLA-A*02:06 [10] (setting [14]).

Regarding YNFSLSAAV, the IC50 in the assay with HLA-A*68:02 [3] (setting [14]) is 29.7 µM; with HLA-A*02:03 [7] (setting [14]) it was no less than 70 µM; in the assay with HLA-A*02:01 [8] (setting [14]), 7.51 µM; in the assay with HLA-A*02:02 [9] (setting [14]), 46.3 µM; with HLA-A*02:06 [10] (setting [14]), no less than 70 µM.

Take YTLIYRQLT: the IC50 with HLA-A*68:02 [3] (setting [12]) was 7.86 µM; with HLA-A*02:03 [7] (setting [12]), 9.42 µM; with HLA-A*02:01 [8] (setting [12]), 28.5 µM; with HLA-A*02:02 [9] (setting [12]), 6.41 µM; with HLA-A*02:06 [10] (setting [12]), 17.6 µM.

As for YVEHDPRLVA, the IC50 with HLA-A*68:02 [3] (setting [12]) turned out to be 31.1 µM; in the assay with HLA-A*02:03 [7] (setting [12]), 16.2 µM; with HLA-A*02:01 [8] (setting [12]) it was 57.5 µM; in the assay with HLA-A*02:02 [9] (setting [12]), 18.6 µM; in the assay with HLA-A*02:06 [10] (setting [12]), 11.9 µM.

For YVIGLLPQS, the IC50 in the assay with HLA-A*68:02 [3] (setting [15]) was no less than 70 µM; with HLA-A*02:03 [7] (setting [15]) it was no less than 70 µM; with HLA-A*02:01 [8] (setting [15]), no less than 70 µM; with HLA-A*02:02 [9] (setting [15]), no less than 70 µM; with HLA-A*02:06 [10] (setting [15]), 48.1 µM.

Turning to YVKNGTKGKL, the concentration for half-maximal inhibition (IC50) is 32.6 µM with HLA-A*68:02 [3] (setting [12]); 7.17 µM with HLA-A*02:03 [7] (setting [12]); 40.6 µM in the assay with HLA-A*02:01 [8] (setting [12]); 5.72 µM with HLA-A*02:02 [9] (setting [12]); 28.5 µM with HLA-A*02:06 [10] (setting [12]).

Take YVPSAEDNYL: the IC50 with HLA-A*68:02 [3] (setting [12]), with HLA-A*02:03 [7] (setting [12]), with HLA-A*02:01 [8] (setting [12]), in the assay with HLA-A*02:02 [9] (setting [12]) and with HLA-A*02:06 [10] (setting [12]) was no less than 70 µM in each case.
